Assay results: article PMC6448818, “A novel evolutionary conserved mechanism of RNA stability regulates synexpression of primordial germ cell-specific genes prior to the sex-determination stage in medaka”

Key:
[1] = biological target: T1, Ol-bsf (Ol-lrpprc, Bicoid Stability Factor) (Oryzias latipes, UniProt H2LIH1 1-1438); assay: EMSA; self-competition 1/1 to 1/4 gave progressive loss of shift; EMSA: 10 mM Tris-HCl pH 7.9, 100 mM KCl, 10% glycerol, 5 mM MgCl2, 1 ug torula rRNA, 0.075% Triton X-100, 1 mM DTT, 1 ug BSA, 0.5 ng probe, 2 or 4 uL IVT mix in 20 uL, on ice 10 min; heparin (1/10 volume of 50 mg/mL) before loading; 5% native gel, 0.5x TBE; conditions: protein: ivt; tags: FLAG; label: 5'-32P when probe
T1 sequence: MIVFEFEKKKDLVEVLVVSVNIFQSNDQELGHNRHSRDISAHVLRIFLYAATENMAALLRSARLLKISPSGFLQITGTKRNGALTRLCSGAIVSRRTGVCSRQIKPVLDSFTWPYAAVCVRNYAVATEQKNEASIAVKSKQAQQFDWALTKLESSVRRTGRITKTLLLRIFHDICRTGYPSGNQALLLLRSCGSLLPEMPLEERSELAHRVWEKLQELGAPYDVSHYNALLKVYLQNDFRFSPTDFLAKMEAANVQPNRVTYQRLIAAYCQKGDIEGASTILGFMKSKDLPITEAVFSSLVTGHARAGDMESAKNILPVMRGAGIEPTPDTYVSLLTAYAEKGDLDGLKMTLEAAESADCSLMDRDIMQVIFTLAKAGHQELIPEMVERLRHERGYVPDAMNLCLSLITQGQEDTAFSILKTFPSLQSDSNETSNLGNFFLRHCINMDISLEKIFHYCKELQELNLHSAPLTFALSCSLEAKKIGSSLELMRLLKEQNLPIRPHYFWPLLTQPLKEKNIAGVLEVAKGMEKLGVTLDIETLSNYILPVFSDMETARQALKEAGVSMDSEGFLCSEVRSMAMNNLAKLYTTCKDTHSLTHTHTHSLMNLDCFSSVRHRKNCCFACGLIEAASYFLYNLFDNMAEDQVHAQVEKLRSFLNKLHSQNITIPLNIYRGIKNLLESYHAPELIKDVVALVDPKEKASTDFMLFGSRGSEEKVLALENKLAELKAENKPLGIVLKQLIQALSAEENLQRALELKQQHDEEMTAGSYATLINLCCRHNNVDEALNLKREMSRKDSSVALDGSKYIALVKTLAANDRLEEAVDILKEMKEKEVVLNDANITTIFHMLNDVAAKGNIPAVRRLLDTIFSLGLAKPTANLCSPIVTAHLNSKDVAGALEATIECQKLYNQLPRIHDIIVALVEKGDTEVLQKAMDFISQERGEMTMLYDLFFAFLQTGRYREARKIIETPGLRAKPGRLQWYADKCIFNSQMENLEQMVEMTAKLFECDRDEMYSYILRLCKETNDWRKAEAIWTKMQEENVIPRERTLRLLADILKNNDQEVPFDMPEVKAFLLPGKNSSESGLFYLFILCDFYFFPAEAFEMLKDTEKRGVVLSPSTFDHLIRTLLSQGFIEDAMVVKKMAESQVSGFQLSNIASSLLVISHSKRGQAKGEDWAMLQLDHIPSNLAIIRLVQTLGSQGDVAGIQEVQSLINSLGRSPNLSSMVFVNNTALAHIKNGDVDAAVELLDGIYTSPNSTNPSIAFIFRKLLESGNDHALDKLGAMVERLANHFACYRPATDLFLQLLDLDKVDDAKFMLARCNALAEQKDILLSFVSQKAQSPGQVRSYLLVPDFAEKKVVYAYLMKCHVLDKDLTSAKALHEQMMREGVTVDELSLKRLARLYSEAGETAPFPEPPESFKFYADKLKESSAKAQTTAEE

[2] = biological target: T1, Ol-bsf (Ol-lrpprc, Bicoid Stability …); assay: competition; vs labelled D3U-box, probe/competitor 1/5; EMSA: 10 mM Tris-HCl pH 7.9, 100 mM KCl, 10% glycerol, 5 mM MgCl2, 1 ug torula rRNA, 0.075% Triton X-100, 1 mM DTT, 1 ug BSA, 0.5 ng probe, 2 or 4 uL IVT mix in 20 uL, on ice 10 min; heparin (1/10 volume of 50 mg/mL) before loading; 5% native gel, 0.5x TBE; conditions: protein: ivt; tags: FLAG

B1: native medaka D3U-box (ssRNA)
RNA: UGGUUCACGUCUGCUGCAGGUCUCUGACUCU
binding result [1]: binds

B2: D3U-scrambled box (S-D3U-box) (ssRNA)
RNA: UGGUUCACGUUCUUCAAGACGCUCUGACUCU
binding result [2]: no binding
